{
  "source": "patent EP2170953B1",
  "key": {"[1]": {"biological_target": "Aβ1-42 peptide, high molecular weight (HMW) proto-fibrillar (PF) oligomer enriched preparation (human)", "sequence (peptide, as listed by the source, form in doubt)": "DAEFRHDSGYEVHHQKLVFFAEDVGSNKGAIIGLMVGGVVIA", "assay": "ELISA, Ab 0.25 µg/ml; proto-fibrils against LMW monomers (given without sign)"}, "[2]": {"biological_target": "Aβ1-42 peptide, high molecular weight (HMW) proto-fibrillar (PF) oligomer enriched preparation (human)", "assay": "ELISA, Ab 0.0625 µg/ml; proto-fibrils against LMW monomers (given without sign)"}, "[3]": {"biological_target": "Aβ1-42 peptide, monomer-enriched preparation", "sequence (peptide, as listed by the source, form in doubt)": "as above", "assay": "ELISA assay 3, Ab 1:1 of 0.5 µg/ml"}, "[4]": {"biological_target": "Aβ1-42 peptide, oligomer-enriched preparation", "sequence (peptide, as listed by the source, form in doubt)": "as above", "assay": "ELISA assay 3, Ab 1:1 of 0.5 µg/ml"}, "[5]": {"biological_target": "Aβ1-42 peptide, monomer-enriched preparation", "assay": "ELISA assay 3, Ab 1:4 of 0.5 µg/ml"}, "[6]": {"biological_target": "Aβ1-42 peptide, oligomer-enriched preparation", "assay": "ELISA assay 3, Ab 1:4 of 0.5 µg/ml"}, "[7]": {"biological_target": "Aβ1-42 peptide, monomer-enriched preparation", "assay": "ELISA assay 1, Ab 1:128 of 0.5 µg/ml"}, "[8]": {"biological_target": "Aβ1-42 peptide, oligomer-enriched preparation", "assay": "ELISA assay 1, Ab 1:128 of 0.5 µg/ml"}, "[9]": {"biological_target": "Aβ1-42 peptide, monomer-enriched preparation", "assay": "ELISA assay 2, Ab 1:2 of 0.5 µg/ml"}, "[10]": {"biological_target": "Aβ1-42 peptide, oligomer-enriched preparation", "assay": "ELISA assay 2, Ab 1:2 of 0.5 µg/ml"}, "[11]": {"biological_target": "Aβ1-42 peptide, monomer-enriched preparation", "assay": "ELISA mean of 3, Ab 1:4 of 0.5 µg/ml"}, "[12]": {"biological_target": "Aβ1-42 peptide, oligomer-enriched preparation", "assay": "ELISA mean of 3, Ab 1:4 of 0.5 µg/ml"}, "[13]": {"biological_target": "Aβ1-42 peptide, monomer-enriched preparation", "assay": "ELISA assay 1, Ab 1:8 of 0.5 µg/ml"}, "[14]": {"biological_target": "Aβ1-42 peptide, oligomer-enriched preparation", "assay": "ELISA assay 1, Ab 1:8 of 0.5 µg/ml"}, "[15]": {"biological_target": "Aβ1-42 peptide, monomer-enriched preparation", "assay": "ELISA mean of 3, Ab 1:32 of 0.5 µg/ml"}, "[16]": {"biological_target": "Aβ1-42 peptide, oligomer-enriched preparation", "assay": "ELISA mean of 3, Ab 1:32 of 0.5 µg/ml"}, "[17]": {"biological_target": "Aβ1-42 peptide, oligomer-enriched preparation", "assay": "ELISA assay 3, Ab 1:8 of 0.5 µg/ml"}, "[18]": {"biological_target": "Aβ1-42 peptide, high molecular weight (HMW) proto-fibrillar (PF) oligomer enriched preparation (human)", "assay": "ELISA on coated fraction, Ab 0.5 µg/ml"}, "[19]": {"biological_target": "Aβ1-42 peptide, low molecular weight (LMW) monomer preparation (human)", "sequence (peptide, as listed by the source, form in doubt)": "as above", "assay": "ELISA on coated fraction, Ab 0.5 µg/ml"}, "[20]": {"biological_target": "Aβ1-42 peptide, monomer-enriched preparation", "assay": "ELISA assay 2, Ab 1:16 of 0.5 µg/ml"}, "[21]": {"biological_target": "Aβ1-42 peptide, oligomer-enriched preparation", "assay": "ELISA assay 2, Ab 1:16 of 0.5 µg/ml"}, "[22]": {"biological_target": "Aβ1-42 peptide, high molecular weight (HMW) proto-fibrillar (PF) oligomer enriched preparation (human)", "assay": "ELISA, Ab 0.0078 µg/ml; proto-fibrils against LMW monomers (given without sign)"}, "[23]": {"biological_target": "Aβ1-42 peptide, monomer-enriched preparation", "assay": "ELISA assay 1, Ab 1:16 of 0.5 µg/ml"}, "[24]": {"biological_target": "Aβ1-42 peptide, oligomer-enriched preparation", "assay": "ELISA assay 1, Ab 1:16 of 0.5 µg/ml"}, "[25]": {"biological_target": "Aβ1-42 peptide, high molecular weight (HMW) proto-fibrillar (PF) oligomer enriched preparation (human)", "assay": "ELISA, Ab 1 µg/ml; proto-fibrils against LMW monomers (given without sign)"}, "[26]": {"biological_target": "Aβ1-42 peptide, monomer-enriched preparation", "assay": "ELISA mean of 3, Ab 1:16 of 0.5 µg/ml"}, "[27]": {"biological_target": "Aβ1-42 peptide, oligomer-enriched preparation", "assay": "ELISA mean of 3, Ab 1:16 of 0.5 µg/ml"}, "[28]": {"biological_target": "Aβ1-42 peptide, oligomer-enriched preparation", "assay": "ELISA assay 1, Ab 1:4 of 0.5 µg/ml"}, "[29]": {"biological_target": "Aβ1-42 peptide, monomer-enriched preparation", "assay": "ELISA assay 3, Ab 1:16 of 0.5 µg/ml"}, "[30]": {"biological_target": "Aβ1-42 peptide, oligomer-enriched preparation", "assay": "ELISA assay 3, Ab 1:16 of 0.5 µg/ml"}, "[31]": {"biological_target": "Aβ1-42 peptide, oligomer-enriched preparation", "assay": "ELISA assay 2, Ab 1:8 of 0.5 µg/ml"}, "[32]": {"biological_target": "Aβ1-42 peptide, high molecular weight (HMW) proto-fibrillar (PF) oligomer enriched preparation (human)", "assay": "ELISA on coated fraction, Ab 0.25 µg/ml"}, "[33]": {"biological_target": "Aβ1-42 peptide, low molecular weight (LMW) monomer preparation (human)", "assay": "ELISA on coated fraction, Ab 0.25 µg/ml"}, "[34]": {"biological_target": "Aβ1-42 peptide, monomer-enriched preparation", "assay": "ELISA assay 1, Ab 1:1 of 0.5 µg/ml"}, "[35]": {"biological_target": "Aβ1-42 peptide, oligomer-enriched preparation", "assay": "ELISA assay 1, Ab 1:1 of 0.5 µg/ml"}, "[36]": {"biological_target": "Aβ1-42 peptide, monomer-enriched preparation", "assay": "ELISA mean of 3, Ab 1:128 of 0.5 µg/ml"}, "[37]": {"biological_target": "Aβ1-42 peptide, oligomer-enriched preparation", "assay": "ELISA mean of 3, Ab 1:128 of 0.5 µg/ml"}, "[38]": {"biological_target": "Aβ1-42 peptide, oligomer-enriched preparation", "assay": "ELISA mean of 3, Ab 1:8 of 0.5 µg/ml"}, "[39]": {"biological_target": "Aβ1-42 peptide, monomer-enriched preparation", "assay": "ELISA assay 2, Ab 1:32 of 0.5 µg/ml"}, "[40]": {"biological_target": "Aβ1-42 peptide, oligomer-enriched preparation", "assay": "ELISA assay 2, Ab 1:32 of 0.5 µg/ml"}, "[41]": {"biological_target": "Aβ1-42 peptide, monomer-enriched preparation", "assay": "ELISA assay 3, Ab 1:32 of 0.5 µg/ml"}, "[42]": {"biological_target": "Aβ1-42 peptide, oligomer-enriched preparation", "assay": "ELISA assay 3, Ab 1:32 of 0.5 µg/ml"}},
  "data": [
    {"substance": "6E10 control antibody", "values": [
      {"measurement": "O.D. difference", "setting": "[1]", "result": 0.12, "unit": "O.D."},
      {"measurement": "O.D. difference", "setting": "[2]", "result": 0.03, "unit": "O.D."},
      {"measurement": "O.D.", "setting": "[3]", "result": 4.04, "unit": "O.D."},
      {"measurement": "O.D.", "setting": "[4]", "result": 3.89, "unit": "O.D."},
      {"measurement": "O.D.", "setting": "[5]", "result": 3.52, "unit": "O.D."},
      {"measurement": "O.D.", "setting": "[6]", "result": 3.64, "unit": "O.D."},
      {"measurement": "O.D.", "setting": "[7]", "result": 0.64, "unit": "O.D."},
      {"measurement": "O.D.", "setting": "[8]", "result": 0.62, "unit": "O.D."},
      {"measurement": "O.D.", "setting": "[9]", "result": 3.48, "unit": "O.D."},
      {"measurement": "O.D.", "setting": "[10]", "result": 3.55, "unit": "O.D."},
      {"measurement": "O.D. (mean)", "setting": "[11]", "result": 3.27, "unit": "O.D."},
      {"measurement": "O.D. (mean)", "setting": "[12]", "result": 3.37, "unit": "O.D."},
      {"measurement": "O.D.", "setting": "[13]", "result": 2.67, "unit": "O.D."},
      {"measurement": "O.D.", "setting": "[14]", "result": 2.73, "unit": "O.D."},
      {"measurement": "O.D. (mean)", "setting": "[15]", "result": 1.36, "unit": "O.D."},
      {"measurement": "O.D. (mean)", "setting": "[16]", "result": 1.32, "unit": "O.D."},
      {"measurement": "O.D.", "setting": "[17]", "result": 3.23, "unit": "O.D."},
      {"measurement": "O.D.", "setting": "[18]", "result": 2, "unit": "O.D."},
      {"measurement": "O.D.", "setting": "[19]", "result": 2.13, "unit": "O.D."},
      {"measurement": "O.D.", "setting": "[20]", "result": 1.94, "unit": "O.D."},
      {"measurement": "O.D.", "setting": "[21]", "result": 1.92, "unit": "O.D."},
      {"measurement": "O.D. difference", "setting": "[22]", "result": 0.02, "unit": "O.D."},
      {"measurement": "O.D.", "setting": "[23]", "result": 1.78, "unit": "O.D."},
      {"measurement": "O.D.", "setting": "[24]", "result": 1.78, "unit": "O.D."},
      {"measurement": "O.D. difference", "setting": "[25]", "result": 0.13, "unit": "O.D."},
      {"measurement": "O.D. (mean)", "setting": "[26]", "result": 1.98, "unit": "O.D."},
      {"measurement": "O.D. (mean)", "setting": "[27]", "result": 1.92, "unit": "O.D."},
      {"measurement": "O.D.", "setting": "[28]", "result": 3.1, "unit": "O.D."},
      {"measurement": "O.D.", "setting": "[29]", "result": 2.23, "unit": "O.D."},
      {"measurement": "O.D.", "setting": "[30]", "result": 2.07, "unit": "O.D."},
      {"measurement": "O.D.", "setting": "[31]", "result": 2.99, "unit": "O.D."},
      {"measurement": "O.D.", "setting": "[32]", "result": 1.44, "unit": "O.D."},
      {"measurement": "O.D.", "setting": "[33]", "result": 1.56, "unit": "O.D."},
      {"measurement": "O.D.", "setting": "[34]", "result": 3.67, "unit": "O.D."},
      {"measurement": "O.D.", "setting": "[35]", "result": 3.36, "unit": "O.D."},
      {"measurement": "O.D. (mean)", "setting": "[36]", "result": 0.75, "unit": "O.D."},
      {"measurement": "O.D. (mean)", "setting": "[37]", "result": 0.63, "unit": "O.D."},
      {"measurement": "O.D. (mean)", "setting": "[38]", "result": 2.98, "unit": "O.D."},
      {"measurement": "O.D.", "setting": "[39]", "result": 1.34, "unit": "O.D."},
      {"measurement": "O.D.", "setting": "[40]", "result": 1.3, "unit": "O.D."},
      {"measurement": "O.D.", "setting": "[41]", "result": 1.54, "unit": "O.D."},
      {"measurement": "O.D.", "setting": "[42]", "result": 1.4, "unit": "O.D."}
    ]}
  ]
}
